Measurements published in US20220125947A1 (published 2022).
Numbering of substitutions follows the chain as printed.

B1: VG9B46 (antibody, human IgG1, kappa, V domains shown)
VH: EVQLVESGGGLVKPGGSLRLSCEASGFTFSINSMNWVRQAPGKGLEWVSSISSTSDYIFNADSVKGRFTISRDNAKNSLYLQMNSLRAEDTAVYYCVRDDVFGAFDIWGQGTMVTVSS
VL: EIVLTQSPGTLSLSPGERATLSCRTSQSVSRSYLGWYQQKPGQPPRLLIFGSSSRATGIPDRFSGSGSGTDFTLTISRLEPEDFAVYYCQQYSRSPLTFGGGTKVDIKR
notes: IgG1, kappa
B2: VG9B429 (antibody, human IgG1, kappa)
heavy: not shown
light: DIQMTQSPSSVSASVGDRVTITCRASQGINSWLAWYQQKPGNAPKLLIYAASSLQSGVPSRFSGIGSGTDFIFTISSLQPEDFASYYCQQANSFPWTFGQGTRLEIKRTVAAPSVFIFPPSDEQLKSGTASVVCLLNNFYPREAKVQWKVDNALQSGNSQESVTEQDSKDSTYSLSSTLTLSKADYEKHKVYACEVTHQGLSSPVTKSFNRGEC
notes: IgG1, kappa
B3: VG9B414 (antibody, human IgG1, kappa)
heavy: not shown
light: B2 light with D1E, Q3V
notes: IgG1, kappa
B4: VG9B80 (antibody, human IgG1, kappa, V domains shown)
VH: EVQLVQSGGGLVKSGGSLRLSCAASGFTFSTYSMNWVRQAPGKGLEWVSSISSSSSYIFYADSVKGRIIISRDNAKNSLYLQMNSVRADDTAVYYCAKDGELGVFDYWGQGTLVTVSS
VL: EIVLTQSPGTLSLSAGERATLSCRASQSISSSYLAWYQQKPGQAPRVLIYGPSGRATGIPDRFRGSGSGTDFTLTISRLEPEDFAVYYCQQFGRSPLTFGGGTKVEIKR
notes: IgG1, kappa
B5: VG9B104 (antibody, human IgG1, kappa, V domains shown)
VH: EVQLVESGGGLVKPGGSLRLSCAASGFTFSVYSMNWVRQAPGKGLEWVSSIGSSSSYIFYADSVKGRFTISRDNAKNSLYLQMNSLRAEDTAVYYCGRDHDYGGLDYWGQGTLVTVSS
VL: B4 VL with A15P, I29V, V47L, G54N, G58D, R64S, S66T, F92Y
notes: IgG1, kappa
B6: VG9B54 (antibody, human IgG1, kappa, V domains shown)
VH: EVQLVESGGGLVKPGGSLRLSCAASGFAFSSYSLTWVRQAPGKGLEWVSSISSSSSYIFYADSVKGRFTISRDNAKNSLYLQMNSLRAEDTAVYYCATDGELGPFDYWGQGTTVTVSS
VL: B4 VL with L4M, A15P, I29V, Y37F, V47R, P52A, G54S, R64S, F92Y
notes: IgG1, kappa
B7: VG9B140 (antibody, human IgG1, kappa, V domains shown)
VH: EVQLVESGGGLVKPGGSLRLSCAGSGFTFRSYDMNWVRQAPGKGLEWVSSISTSSGYIYYADSVKGRFTISRDNAKNSLSLQMNSLRAEDTAVFYCARDRGIAVAGDYYYGMDVWGQGTMVTVSS
VL: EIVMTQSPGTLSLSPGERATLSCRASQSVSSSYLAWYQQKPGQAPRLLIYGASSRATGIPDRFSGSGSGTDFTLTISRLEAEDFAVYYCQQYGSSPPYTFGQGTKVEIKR
notes: IgG1, kappa
B8: VG9B69 (antibody, human IgG1, kappa, V domains shown)
VH: EVQLVESGGGLVKPGGSLRLSCAASGFTFSSYDINWVRQAPGKGLEWVSSITSSSYYIYYADSVKGRFTISRDNAKNSLYLQMNSLRAEDTAVYYCARDLGVRGVDYYYYGLDVWGQGTMVTVSS
VL: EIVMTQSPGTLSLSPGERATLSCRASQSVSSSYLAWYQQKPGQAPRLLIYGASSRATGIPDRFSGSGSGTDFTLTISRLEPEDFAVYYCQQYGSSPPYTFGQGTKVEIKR
notes: IgG1, kappa
B9: VG9B416 (antibody, human IgG1, kappa)
heavy: not shown
light: EIVLTQSPGTLSLSPGDRATLSCRASQSVASSYLAWYQQKPGQSPRLLIYGASSRATGIPDRFSGSGSGTDFTLTISRLEPEDFAVYYCQQYGSSPPYTFGQGTKLEIKRTVAAPSVFIFPPSDEQLKSGTASVVCLLNNFYPREAKVQWKVDNALQSGNSQESVTEQDSKDSTYSLSSTLTLSKADYEKHKVYACEVTHQGLSSPVTKSFNRGEC
notes: IgG1, kappa
B10: VG9B195 (antibody, human IgG1, lambda, V domains shown)
VH: EVQLVESGGGLVKPGGSLRLSCAASGFTFSPYTMNWVRQAPGKGLEWVSSISSSSSYMYYADSVKGRFTISRDNAKNSLYLQMNSLRAEDTAVYYCARDGDLVGPTYYFDYWGQGTLVTVSS
VL: SYELMQPPSVSVSPGQTASITCSGDKLGDKYACWYQQKPGQSPVLVIYQHNKRPSGIPERFSGSNSGKTATLTISGTQAMDEADYYCQAWDSTTVVFGGGTKLTVLG
notes: IgG1, lambda
B11: VG9B98 (antibody, human IgG1, kappa, V domains shown)
VH: EVQLVQSGGDLVKSGGSLRLSCAASGFTFSSYSMYWVRQAPGKGLEWVSSIGSSSTYIFYADSVKGRFTISRDNAMTSLYLQMNRLGAEDSAVYYCARDGELGPFEYWGQGTLVTVSS
VL: B1 VL with T25A, R31T, G35A, Y37F, P44A, S52T, Y88H, Q90L, S93G
notes: IgG1, kappa; also called antibody #21
B12: VG9B428 (antibody, human IgG1, kappa)
heavy: not shown
light: B2 light with D1E, Q3V, R103K, L104V
notes: IgG1, kappa; also called antibody #18
B13: VG9B421 (antibody, human IgG1, kappa)
heavy: not shown
light: B2 light
notes: IgG1, kappa; also called antibody #34
B14: VG9B88 (antibody, human IgG1, kappa, V domains shown)
VH: EVQLVESGGGLVKPGGSLRLSCAVSGFTFSSYTMNWVRQAPGKGLEWVSSISTSSSYIDYADSVKGRFTISRDNAKKSLYLQMNSLRAEDTAVYYCARDGDMVAPIKGSFDYWGQGTLVTVSS
VL: EIVLTQSPLSLPVTPGEPASISCRSSQSLLNSDDGNTYLDWYLQKPGQSPQLLIYTLSYRASGVPDRFSGSGSGTDFTLKISRVEAEDVGVYYCMQRIEFPITFGQGTRLEIKR
notes: IgG1, kappa; also called antibody #35
B15: VG9B430 (antibody, human IgG1, kappa, V domains shown)
VH: EVQLLESGGGLVKPGGSLRLSCSASGFTFSSYDMNWVRQAPGKGLEWVSSISSSSSYIYYADSVKGRFTISRDNAKNSLYLQMNSLRAEDTAVYHCARDVGVTTDYYYYGMDVWGQGTMVTVSS
VL: EIVLTQSPGTLSLSPGDRATLSCRASQSVASSYLAWYQQKPGQSPRLLIYGASSRATGIPDRFSGSGSGTDFTLTISRLEPEDFAVYYCQQYGSSPPYTFGQGTKLEIKR
notes: IgG1, kappa; also called antibody #19
B16: VG9B73 (antibody, human IgG1, kappa, V domains shown)
VH: EVQLVQSGGGLVKPGGSLRLSCAASGFTFSNYDMNWVRQAPGKGLEWVSSISSSSSYIYYADSVKGRFTISRDNARNSLFLQMSSLRAEDTAVYYCAREIGVTGTTYYQDYGMDVWGQGTTVTVSS
VL: B15 VL with L4M, D17E, V29F, A30S, S32N, S44A, V86L, Y98F, L106V
notes: IgG1, kappa; also called antibody #22
B17: VG9B133 (antibody, human IgG1, kappa, V domains shown)
VH: EVQLVESGGGLVKPGGSLRLSCAAAGFTFSNYDMNWVRQVPGKGLEWVSSISSSSSYIYYADSVKGRFTISRDNAKNSLYLQMNTLRAEDTAVYYCARDLGITGTTMDYYYGMDVWGQGTMVTVSS
VL: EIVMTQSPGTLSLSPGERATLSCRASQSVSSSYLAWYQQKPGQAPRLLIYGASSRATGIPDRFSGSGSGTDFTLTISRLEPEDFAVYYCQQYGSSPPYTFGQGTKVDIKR
notes: IgG1, kappa; also called antibody #23
B18: VG9B418 (antibody, human IgG1, kappa)
heavy: not shown
light: B9 light
notes: IgG1, kappa; also called antibody #32
B19: VG9B413 (antibody, human IgG1, kappa)
heavy: not shown
light: B9 light with L4M, L106V
notes: IgG1, kappa; also called antibody #37
B20: VG9B384 (antibody, human IgG1, lambda, V domains shown)
VH: QVQLQESGPALVKPTQTLTLTCTFSGFSLSSSGMCVSWIRQPPGKALEWLTLIDWFDDKYYSTSLKTRLTISKDTSKNQVVLTMTNMDPVDTATYYCARIRGTGAYYYGLDVWGQGTMVTVSS
VL: B10 VL with D25N, K26E, C33S, K38Q, H50D, K68N, T93S, T94K
notes: IgG1, lambda; also called antibody #36
B21: VG9B472 (antibody, human IgG1, kappa, V domains shown)
VH: QVQLVESGGGLVKPGGSLRLSCAASGFTFSHYDMNWVRQAPGKGLEWVSSISSSSSYIFYADSVKGRFTISRDNAKNSLLLQMNSLRAEDTAVYHCARDRGVGDTSDYYSFGLDVWGQGTTVTVSS
VL: EIVLTQSPSSLSASVGDRVTITCRASQGIATYLAWYQQKPGKVPNLLIYAASTLQSGVPSRFSGSGSGTDFTLTISSLQPEDVATYYCQKYNSAPPWTFGQGTKVEIKR
notes: IgG1, kappa; also called antibody #33

These binders were tested against γδ T cell receptor on human γδ T cells (AG000003021) (human) (assay: flow cytometry, DRC binding at 37°C on human γδ T cells).
Procedure: (§1) Binding of antibodies to human γδ T cells or SKW cell lines expressing Vγ9/Vδ2, Vγ9/Vδ2 or Vγ5/Vδ2 was carried out by flow cytometry. Briefly, the cells were centrifuged at 300×g for 5 minutes and the pellet was resuspended in 34 ml fresh media (in RPMI+10% FBS). 50 μL of the cells were then plated (44K cells/well) into assay plates. Samples were incubated for one hour at 37° C. in tissue culture (TC) incubator followed by wash steps by adding 100 μl FACS staining buffer. Secondary detention antibodies (A647 conjugated anti-human IgG Fc specific antibody (2 μg/mL) along with AF488 anti mouse CD3, clone OKT3 at 1 ug/mL) were added at 50 μL/well to appropriate wells according to the plate map. After incubating for 60 minutes at 37° C. in the TC incubator, cells were again washed as described above. This is followed by resuspension in 20 μL/well running buffer containing 1:1000 dilution of Sytox blue dead cell stain and the plates were run on iQue Screener.
(§2) Gating and data analysis: Human anti-human Vγ9 antibody (VG9B2 mAb at 10 nM) was used to mark the gating of positive population. All cells were first gated for singlets on SCS-A vs. SCS-H dot plot, live/dead followed by CD3 positive population, and this subset of CD3 positive population was gated for Vγ9 positive binding using positive control mAb. Cells were also assessed for cell binding of control mAbs by RL1 (A647) Geomeans from the live cell population. Advanced metrics were used and normalization metrics were chosen to calculate fold over background wells containing secondary antibody alone (designated as ‘background’ within ForeCyt settings).

Binder	Max. Activity
B1	3210 fold over background
B2	3640 fold over background
B3	3300 fold over background
B4	3480 fold over background
B5	3050 fold over background
B6	4290 fold over background
B7	3230 fold over background
B8	3110 fold over background
B9	3120 fold over background
B10	3260 fold over background

These binders were tested against T1, γδ T cell receptor on human γδ T cells (human) (assay: flow cytometry, dose-response binding at 37 C on human γδ T cells).
T1 construct: also called AG000003021 (γδ T cells)
Procedure: as §1, §2

Binder	Max. Activity
B11	2880 fold over background
B12	2980 fold over background
B13	2610 fold over background
B14	2560 fold over background
B15	2970 fold over background
B16	2840 fold over background
B17	2840 fold over background
B18	2630 fold over background
B19	2470 fold over background
B20	2550 fold over background
B21	2620 fold over background
